Values quoted from earlier work, collected in publication PMC9152818.
pKd: −log10 of the molar value. Where two headings read alike, the source gives them in different places.

Tests used:
[1] = molecular target: spike protein RBD (SARS-CoV-2) (UniProt P0DTC2)
[2] = molecular target: spike protein RBD (SARS-CoV-2) (UniProt P0DTC2); remark: listed apart in the source
[3] = molecular target: spike protein RBD (SARS-CoV-2) (UniProt P0DTC2); remark: listed apart in the source
[4] = molecular target: spike protein CendR peptide CendR peptide (SARS-CoV-2) (UniProt P0DTC2)
[5] = molecular target: spike protein (SARS-CoV-2) (UniProt P0DTC2)

In the case of Kremen1 (from UniProt Q96MU8), the pKd [1] is given as 7.70.

For ASGR1 (from UniProt P07306), the pKd [2] is listed as 7.02.

In the case of “soluble trimeric ACE2 (from UniProt Q9BYF1)”, the pKd [3] is listed as greater than 9.00.

In the case of Neuropilin-1 (from UniProt O14786), the pKd [4] is given as 4.70.

For AXL (from UniProt P30530), the pKd [5] is given as 6.00.
